Measured values as given in the nanobody polyreactivity screen of Harvey et al. (2022).

Test: yeast display, Sf9 membrane polyspecificity reagent, FACS + sequencing; frameworks hold sequencing errors
Outline: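 Galactose induction of a Saccharomyces cerevisiae BJ5465 synthetic nanobody display library ran 36–48 hours. The cells were then stained for 1 hour at 4 °C with 10% biotinylated, detergent-solubilized Sf9 membrane reagent, pulled down on streptavidin microbeads and FACS-sorted into low and high (top ~1%) gates on expression and reagent-binding fluorescence. Labels for polyreactivity follow the gate of origin.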

Row | Sequence | polyreactivity (PSR sort gate)
1 | QVQLVESGGGLVQAGGSLRLSCAASGSIFASYDMGWYRQAPGKERELVARITFNGGSTYYADSVKGRFTISRDNAKNTVYLQMNSLKPEDTAVYYCANDYRYIFIYPYGWTRYDYWGQGTQVTVSS | low polyreactivity
2 | QVQLVESGGGLVQAGGSLRLSCAASGSIFATYAMGWYRQAPGKERELGAAISRSGGSTYYADSVKGRFTISRDNAKNTVYLQMNSLKPEDTAVYYCAAVRGYGWWWSRWGSREYWGQGTQVTVSS | high polyreactivity
3 | QVQLVESGGGLVQAGGSLRLSCAASGSIFATYAMGWYRQAPGKERELVAAISSSGSRTYYADSVKGRFTNSRDNAKNTVYLQMNSLKPEDTAVYYCAAGSGRFRPGYGYWGQGTQVTVSS | high polyreactivity
4 | QVQLVESGGGLVQAGGSLRLSCAASGSIFATYGMGWYRQAPGKERELVAAITSSGGSTYYADSVKGRFTISRDNAKNTVYLQMNSLKPEDTAVYYCAADSYIIWYGTVVSYGEDSWGQGTQVTVSS | low polyreactivity
5 | QVQLVESGGGLVQAGGSLRLSCAASGSIFAVYAMGWYRQAPGKERELVAAISSRGSSTYYADSVKGRFTISRDNAKNTVYLQMNSLIPEDTEVYYCAARPGIRSYPPGYGYWGQGTQVTVSS | low polyreactivity
6 | QVQLVESGGGLVQAGGSLRLSCAASGSIFAVYAMGWYRQAPGKERELVASISRTGTTNYADSVKGRFTISRDNAKNTVYLQMNSLKPEDSAVYYCNADAYLYYKYHWGFTFYQYVYWGQGTEVTVSS | low polyreactivity
7 | QVQLVESGGGLVQAGGSLRLSCAASGSIFAVYAMGWYRQAPGKERELVASISRTGTTNYADSVKGRFTISRDNAKNTVYLQMYSLKPEDTAVYYCAARPGSWYPSVPSYNYWGQGTQVTVSS | low polyreactivity
8 | QVQLVESGGGLVQAGGSLRLSCAASGSIFAVYAMGWYRQAPGKERVLVAASSTDYADSVKGRFTISRDNAKNTVYLQMNSLKTEDTAVYYCAKVGFGIPGGFYYWGQGTQVTVSS | low polyreactivity
9 | QVQLVESGGGLVQAGGSLRLSCAASGSIFAWNAMGWYRQAPGKERELVAAIRWSSGRTNYADSVKGRFTISRDNAKNTVYLQMNSLKPEDTAVYYCNARVVNYFRPRTGAREYDYWGQGTQVTVSS | high polyreactivity
10 | QVQLVESGGGLVQAGGSLRLSCAASGSIFAWYAMGWYRQAPGKERELVAAIRFRGGSTYYADSVKGRFTISRDNAKNTVYLQMNSLKPEDTAVYYCAGYYWYRSYYWGQGTQVTVSS | high polyreactivity
11 | QVQLVESGGGLVQAGGSLRLSCAASGSIFAYAMGWYRQAPGKQRELVAGISSSGGRTYYADSVKGRFTISRDNAKNSVYLQMNSLKPEDTAVYYCAARAQSPPYGYWGQGTQVTVSS | high polyreactivity
12 | QVQLVESGGGLVQAGGSLRLSCAASGSIFAYNAMGWYRQAPGKVREFVAVITRSDDSTYADSVKGRFTISRDNAKNTVYLQMNSLKPEDTAVYYCAAQPFDIDGGYRVDYWRQGTQVTVSS | low polyreactivity
13 | QVQLVESGGGLVQAGGSLRLSCAASGSIFAYNDMGWYRQAPGKERELVAAIRNGGRTNYADSVKGRFTISRDNAKNTVYLQMNSLKPEDTAVDYWAALNYYGSDYWGQGTQVTVSS | high polyreactivity
14 | QVQLVESGGGLVQAGGSLRLSCAASGSIFAYYAMGWYRQAPGKERELVAAISRRGATTYYSDSVKGRFTISRDNAKNTVYLQMNSLKPEDTAVYYCAARTPYWTSYLRYWGQGTQVTVSS | high polyreactivity
15 | QVQLVESGGGLVQAGGSLRLSCAASGSIFAYYAMGWYRQAPGKERELVAAISSGGSTNYADSVKGRFTISRDNAKNPVYLQMNSLKPEDTAVYDCAKRSYYGLTYYSWGQGTQVTVSS | low polyreactivity
16 | QVQLVESGGGLVQAGGSLRLSCAASGSIFAYYAMGWYRQAPGKERELVARITYSTDGTYYADSVKGRFTISRDNAKNTVYLQMNSLKPEDTAVYYCAVDTWWGFKRYKFDYWGQGTQVTVSS | low polyreactivity
17 | QVQLVESGGGLVQAGGSLRLSCAASGSIFAYYAMGWYRQAPGKERELVAYISRSGGITYYADSVKGRFTLSRDNAKNTVYLQMNSLKPVDTAVDYCAARYSVRPISIYPFDFGYWGQGTQVTVSS | low polyreactivity
18 | QVQLVESGGGLVQAGGSLRLSCAASGSIFDDYAMGWYRKAPGKERELVAAITSGGSTYYADSVKGRFTISRDNAKNTVYLQMNSLKPEDTAVYYRATRYHWSSSFAPVGAYGYWGQGTQVTVSS | low polyreactivity
19 | QVQLVESGGGLVQAGGSLRLSCAASGSIFDDYAMGWYRQAPGKERELVAAIDYTGGSTYYADSVKGRFTISRDNAKNTVYLQMNSLIPEDTAVYYCAAEVRVYYYLGGGYSWGQGTQVTVSS | low polyreactivity
20 | QVQLVESGGGLVQAGGSLRLSCAASGSIFDDYAMGWYRQAPGKERELVAAISWSGGRPYYADSVKGRFTNSRDNAKNTVYLPMNSLKPEDTAVYYCAATTGVRSRRYYYWVQGTQVTVSS | low polyreactivity
21 | QVQLVESGGGLVQAGGSLRLSCAASGSIFDDYAMGWYRQAPGKERELVAAISWSGGRTYYADSVKGRFTISRDNAKNTVYLQMNSLKPEDTAVYYCAASTGVRSRRYYYWGQGTQVTVSS | low polyreactivity
22 | QVQLVESGGGLVQAGGSLRLSCAASGSIFDDYAMGWYRQAPGKERELVAAITSGGSTYYADSVKGRFTISLDNAKNTVYLQMNSLKPEDTAVYYRATRYHWSSSFAPVGAYGYWGQATQVTVSS | low polyreactivity

Row | Sequence | polyreactivity (PSR sort gate)
23 | QVQLVESGGGLVQAGGSLRLSCAASGSIFDENAMGWYRQAPGKERELVAAITSTDSTNYADSVKGRFTISRDNAKNTVYLQMNSLKPEDTAVYYCARDIKHATSYEALYYSDYDYWGQGTQVTVSS | low polyreactivity
24 | QVQLVESGGGLVQAGGSLRLSCAASGSIFDFYSMGWYRQAPGKERELVAAISRGGSTYYADSVKGRFTISRDNAKNTVYFLMNSLKPEDTGVDYCAARDGVLVSWLWFWCDSPYGYWGQGTQGTVSS | low polyreactivity
25 | QVQLVESGGGLVQAGGSLRLSCAASGSIFDFYVMGWYRQAPGKERELVAGISEGGDSTYYADSVKGRFTISRDNAKNTVYLQMNSLKPEDTAVYYCAKASAKGSYYWGQGTQVTVSS | low polyreactivity
26 | QVQLVESGGGLVQAGGSLRLSCAASGSIFDGNAMGWYRQAPGKERELVAAITQSGCSTYYADSVKGRFTISRDNAKNTVYFQMNSLKPEDNAVYYCAADVPGVYPYDYWGQGTQVTVSS | low polyreactivity
27 | QVQLVESGGGLVQAGGSLRLSCAASGSIFDGYAMGWNSQAPGKERELVAAISQRGGSTYYADSVKGRFTISRDNAKNTVYLQINSLKPEETAVYYCAADSSYGTRDYWGQGTQVTVSS | low polyreactivity
28 | QVQLVESGGGLVQAGGSLRLSCAASGSIFDGYAMGWYTQAPGKERELVADINNGADTYYADSVKGRFTISRDNAKNTVYLQMYSLKPEDTAVYYCAARYGTDTDIQNVARYDYWGQGTQVTVSS | low polyreactivity
29 | QVQLVESGGGLVQAGGSLRLSCAASGSIFDHNAMGWYRQAPGKEREFFARITSSGGGTYYADSVKGRFTISRDNAKNTVYLQMNSLKPEDTAVYYCAKTYYRQGARYPTMFYYWGQGTQVTVSS | low polyreactivity
30 | QVQLVESGGGLVQAGGSLRLSCAASGSIFDHYAMGWYRQAPGKERELVAAIRTDGSTKYADSVKGRFTISRDNAKNTVYLQMNSLKPEDTAVYYCAATTGYTARWRNRYIYSYWGQGTEVTVSS | high polyreactivity
31 | QVQLVESGGGLVQAGGSLRLSCAASGSIFDHYTMGWYRQAPGKERELVARISSRGGSTYYADSVKGRFTISRDNAKNTVYLQMNSLKPEDTAVYYCAAYKKLLYYKFGSWGQGTQVTVSS | high polyreactivity
32 | QVQLVESGGGLVQAGGSLRLSCAASGSIFDIYAMAWYRQAPGKERELVADITSGGRTDYADSVKGRFTISRDNGKNTVYLQMNSLKPEDTAVYYCAADYIWDSVYWYISSYDYWGQGTKVTVSS | low polyreactivity
33 | QVQLVESGGGLVQAGGSLRLSCAASGSIFDLNTMGWYRQAPGKERELVAAITWGGGSTYYADSVKGRFTISRDNAKNTVYLQMNSLKPEDTAVYYCNVTWSWGEKGRKAYGYWGQGTQVTVSS | low polyreactivity
34 | QVQLVESGGGLVQAGGSLRLSCAASGSIFDLYAKGWYRQAPGKERELVAGISYSGGSTYYADSVKGRFTISRDNAKNTVYLQMNSLKPEDTAVYYCATAYYYHGGYYYPYDDYWGQGTQVTVSS | low polyreactivity
35 | QVQLVESGGGLVQAGGSLRLSCAASGSIFDLYVMGWYRQAPGKERELVAAISLIGGSTSYADSVKGRFTISRDNEKNTVYLHRKSLKPEDTAVYYCAVEKFFRAEYDHWGLGTQVTVSS | low polyreactivity
36 | QVQLVESGGGLVQAGGSLRLSCAASGSIFDNYAMGWYRPAPGKERELVAAITSGGSTYYADSVKGRFTISRDNAKNTVYLQMNSLKPEDTAVYYCAKDYKSIDDYWGQGTQVTVSS | low polyreactivity
37 | QVQLVESGGGLVQAGGSLRLSCAASGSIFDPYAMGWYIQAPGKERELDAAITASGSSTYYADSVKGRFTISRDNAKNTVYLQMNSLKPEDTAVYYCAADRANWEYLLSWLGYDYWGQGTQVTVSS | low polyreactivity
38 | QVQLVESGGGLVQAGGSLRLSCAASGSIFDPYAMGWYRQAPGKERELVAAITSDGSTNYADSVKGRFTISRDNAKNTVYLQMNSLKPEDTAVYYCAKHQFGRYVVLYPRGHWFDYWGQGTQVTVSS | low polyreactivity
39 | QVQLVESGGGLVQAGGSLRLSCAASGSIFDPYGMGWYRQAPGKERELVAAISSSDGSTYYADSVKGRFTISRDNAKNTVYLQMNSLKPEDTAVYFCAAETYGTNSSNTVYRWKYDYWGQGTQVTVSS | low polyreactivity
40 | QVQLVESGGGLVQAGGSLRLSCAASGSIFDQYAMGWYRPAPGKERELVAAIDTSGGSTYYADSVKGRFTISRDNAKNTVYLQMNSLKPEDTAVYYCNAGGDGDILTTEMDYWGPGTQVTVSS | low polyreactivity
41 | QVQLVESGGGLVQAGGSLRLSCAASGSIFDRNAMGWYRQAPGKERELVAAISRSSGNTYYADSVKGRFTISRDNAKNTVYLQMNSLKPEDTAVYYCNKVDYWGQGTQVTVSS | high polyreactivity
42 | QVQLVESGGGLVQAGGSLRLSCAASGSIFDRYAMGWYIQAPGKERELVASITWRATSTYYADSVKGRFTISRDNAKNTVYLQMNSLKPEDTAVYYCAADVPWGWWDSDFSDNYYWGQGTQVTVSS | low polyreactivity
43 | QVQLVESGGGLVQAGGSLRLSCAASGSIFDSNAMGWYRQAPGKERELVADIRGIGGSTYYADSVKGRFTISRDNAKNTVYLQMNSLKPEDTAVYYCNTSTLGGYYWGQGTQVTVSS | low polyreactivity
